B1: OR4K15 (parent)
chain: GUUAACGGUCAUAGGCCAUGGAAACUAGGAGCACCAUUUCGCUGCCAGUGAAGAAAUGAACAAAGAAAAUCUGGGCCAGGCAGGCAUCAAAAGAAAUAGUCUUGCGCUCAACCAGAAAGUCUGUAAUCAUUUUAAGGGUA

Variants of: B1
Experiment: self-cleavage, relative activity (ratio to wild type); higher = more cleavage; in vitro, sequencing; the parent is a self-cleaving ribozyme

Variant | self-cleavage
GUUAACGGUCAUAGGCCAAGGAAACUAGGAGCACCAUUUCGCUGCCAGUGAAGAAAUGAACAAAGAAAAUCUGGGCCAGGCAGGCAUCAAAAGAAAUAGUCUUGCGCUCCACCAGAAAGUCUGUAAUCAUUUUAAGGGUA [U19A A110C] | 0.3
GUUAACGGUCAUAGGCCAAGGAAACUAGGAGCACCAUUUCGCUGCCAGUGAAGAAAUGAACAAAGAAAAUCUGGGCCAGGCAGGCAUCAAAAGAAAGAGUCUUGCGCUCAACCAGAAAGUCUGUAAUCAUUUUAAGGGUA [U19A U97G] | 1.84
GUUAACGGUCAUAGGCCAAGGAAACUAGGAGCACCAUUUCGCUGCCAGAGAAGAAAUGAACAAAGAAAAUCUGGGCCAGGCAGGCAUCAAAAGAAAUAGUCUUGCGCUCAACCAGAAAGUCUGUAAUCAUUUUAAGGGUA [U19A U49A] | 1.05
GUUAACGGUCAUAGGCCAAGGAAAUUAGGAGCACCAUUUCGCUGCCAGUGAAGAAAUGAACAAAGAAAAUCUGGGCCAGGCAGGCAUCAAAAGAAAUAGUCUUGCGCUCAACCAGAAAGUCUGUAAUCAUUUUAAGGGUA [U19A C25U] | 1.86
GUUAACGGUCAUAGGCCAAGGAAACUAGGAGCACCAUUUCGCUGCCAGUGAAGAAAUGAACAAAGAAAAUCUGGGCCAGGCAGGCAUCAAAAGAAAUAGUCAUGCGCUCAACCAGAAAGUCUGUAAUCAUUUUAAGGGUA [U19A U102A] | 0.97
GUUAACGGUCAUAGGCCAAGGAAACUAGGAGCACCAUUUCGCUGCCAGUGAAGAAAUGAACAAAGAAAAUCUGGGCCAGGCAGGCAUCAAAAGAAGUAGUCUUGCGCUCAACCAGAAAGUCUGUAAUCAUUUUAAGGGUA [U19A A96G] | 1.64
GUUAACGGUCAUAGGCCAAGGAAACUAGGAGCACCAUUUCGCUGCCAGUGAAGAAAUGAACAAAGAAAAUCAGGGCCAGGCAGGCAUCAAAAGAAAUAGUCUUGCGCUCAACCAGAAAGUCUGUAAUCAUUUUAAGGGUA [U19A U72A] | 0.21
GUUAACGGUCAUAGGCCAAGGAAACUAGGAGCACCAUUUCGCUGCCAGUGAAGAAAUGAACAAAGAAAAUCUGGGCCAGGCAGGCAUCAAAAGAAAUAGUCUUGCGCUCAACCAGGAAGUCUGUAAUCAUUUUAAGGGUA [U19A A116G] | 1.24
GUUAACGGUCAUAGGCCAAGGAAACUAGGAGCACCAUUUCGCUGCCAGUGAAGAAAUGAACAAAGAAAACCUGGGCCAGGCAGGCAUCAAAAGAAAUAGUCUUGCGCUCAACCAGAAAGUCUGUAAUCAUUUUAAGGGUA [U19A U70C] | 1.06
GUUAACGGUCAUAGGCCAAGGAAACAAGGAGCACCAUUUCGCUGCCAGUGAAGAAAUGAACAAAGAAAAUCUGGGCCAGGCAGGCAUCAAAAGAAAUAGUCUUGCGCUCAACCAGAAAGUCUGUAAUCAUUUUAAGGGUA [U19A U26A] | 1.58
GUUAACGGUCAUAGGCCAAGGAAACUAGGAGCACCAUUCCGCUGCCAGUGAAGAAAUGAACAAAGAAAAUCUGGGCCAGGCAGGCAUCAAAAGAAAUAGUCUUGCGCUCAACCAGAAAGUCUGUAAUCAUUUUAAGGGUA [U19A U39C] | 0.99
GUUAACGGUCAUAGGCCAAGGAAACUAGGAGCACCAUUUCGCUGCCAGUGAAGAAAUGAACAAAGAAAAUCUGGGCCAGGCAGGCAUCAAAAGAAAUAGUCUUGCGCUCACCCAGAAAGUCUGUAAUCAUUUUAAGGGUA [U19A A111C] | 0.01
GUUAACGGUCAUAGGCCAAGGAAACUAGGAGCACCAUUUCGCUGCCAGUGAAGAAAUGAACAAAGAAAAUCUGGGCCAGGCAGGCAUCAAAAGAAAUAGUCUUGCGCUCAGCCAGAAAGUCUGUAAUCAUUUUAAGGGUA [U19A A111G] | 0.02
GUUAACGGUCAUAGGCCAAGGAAACUAGGAACACCAUUUCGCUGCCAGUGAAGAAAUGAACAAAGAAAAUCUGGGCCAGGCAGGCAUCAAAAGAAAUAGUCUUGCGCUCAACCAGAAAGUCUGUAAUCAUUUUAAGGGUA [U19A G31A] | 1.02
GUUAACGGUCAUAGGCCAAGGAAACUAGGAGCACCACUUCGCUGCCAGUGAAGAAAUGAACAAAGAAAAUCUGGGCCAGGCAGGCAUCAAAAGAAAUAGUCUUGCGCUCAACCAGAAAGUCUGUAAUCAUUUUAAGGGUA [U19A U37C] | 0.9
GUUAACGGUCAUAGGCCAAGGAAACUAGGAGCACCAUUUCGCUGCCAGUGAAGAAAUGAACAAAGAAAAUCUGGGCCAGGCAGGCAUCAAAAGAAAUAGUCUUGCGCUCAACCAGAAAGUCUGUAAUCGUUUUAAGGGUA [U19A A129G] | 0.05
GUUAACGGUCAUAGGCCAAGGAAACUAGGAGCACCAUCUCGCUGCCAGUGAAGAAAUGAACAAAGAAAAUCUGGGCCAGGCAGGCAUCAAAAGAAAUAGUCUUGCGCUCAACCAGAAAGUCUGUAAUCAUUUUAAGGGUA [U19A U38C] | 1.98
GUUAACGGUCAUAGGCCAAGGAAACUAGGAGCACCAUUUCGCCGCCAGUGAAGAAAUGAACAAAGAAAAUCUGGGCCAGGCAGGCAUCAAAAGAAAUAGUCUUGCGCUCAACCAGAAAGUCUGUAAUCAUUUUAAGGGUA [U19A U43C] | 1.77
GUUAACGGUCAUAGGCCAAGGAAACUAGGAGCACCAUUUCGCUGCCAGUGAAGAAAUGAACAAAGAAAAUCUGGGCCAGGCAGGCAUCAAAAGAAAUAGUCUUGCGCUCAACCAGAAAGUCUGUAAUCAUUUUUAGGGUA [U19A A134U] | 0.89
GUUAACGGUCAUAGGCCAAGGAAACUAGGAGCACCAUUUCGCUGCCAGUGAAGAAACGAACAAAGAAAAUCUGGGCCAGGCAGGCAUCAAAAGAAAUAGUCUUGCGCUCAACCAGAAAGUCUGUAAUCAUUUUAAGGGUA [U19A U57C] | 0.67
GUUAACGGUCAUAGGCCAAGGAAACUAGGAGCACAAUUUCGCUGCCAGUGAAGAAAUGAACAAAGAAAAUCUGGGCCAGGCAGGCAUCAAAAGAAAUAGUCUUGCGCUCAACCAGAAAGUCUGUAAUCAUUUUAAGGGUA [U19A C35A] | 0.65
